We go through 2 molecules from article PMC8248988, “A signal capture and proofreading mechanism for the KDEL-receptor explains selectivity and dynamic range in ER retrieval” (eLife, 2021).

Ends that are not written are not given here.

Test [1] addresses TAEHDEL retrieval-signal peptide (unlabelled) K to H at position -4 relative to TAEKDEL (K651H in human BiP numbering) (UniProt P11021). Kind of test: radioligand filter-binding assay, competition of unlabelled peptide against [3H]-TAEHDEL. As to conditions: pH 5.4; 20°C; 40 mM Sodium Chloride; 20 mM MES pH 5.4 (default assay buffer 'unless stated otherwise'; pH not restated for this experiment).

For test [2], the target named is TAEKDEL retrieval-signal peptide (unlabelled) (UniProt P11021). The test is described as above. As to conditions: pH 5.4; 20°C; 40 mM Sodium Chloride; 20 mM MES pH 5.4 (default assay buffer 'unless stated otherwise'; pH not restated for this experiment).
The target in test [3] is TAERDEL retrieval-signal peptide (unlabelled) K to R at position -4 relative to TAEKDEL (K651R in human BiP numbering) (UniProt P11021). The test is described as above. As to conditions: pH 5.4; 20°C; 40 mM Sodium Chloride; 20 mM MES pH 5.4 (default assay buffer 'unless stated otherwise'; pH not restated for this experiment).
Test [4] addresses [3H]-TAEHDEL retrieval-signal peptide K to H at position -4 relative to TAEKDEL (K651H in human BiP numbering) (UniProt P11021). As to the kind of experiment: radioligand filter-binding assay, direct titration (scintillation counting). As to conditions: 20°C, 40 mM Sodium Chloride, 20 mM MES pH 5.4 (default), the buffers used for the other pH values of Figure 3f (up to pH 7.0) are not stated.

Test [5] has as its target [3H]-TAEKDEL retrieval-signal peptide (UniProt P11021). The description is as above. The settings on record: pH 5.4; 20°C; 40 mM Sodium Chloride; 20 mM MES pH 5.4 (default); the buffers used for the other pH values of Figure 3f (up to pH 7.0) are not stated.
Test [6] has the same target. Kind of test: in vitro binding assay of Bräuer et al. 2019 (not described here; presumably the same [3H]-TAEKDEL filter-binding assay). As to conditions: pH 6.4; cited from earlier work.
In test [7] the target is T1, TAERDEL retrieval signal peptide.
T1 chain: TAERDEL
Kind of test: peptide binding assay.

In test [8] the target is T2, TAEDDEL retrieval signal peptide.
T2 chain: TAEDDEL
As to the kind of experiment: peptide binding assay.

The target of test [9] is T3, TAEHDEL retrieval signal peptide.
T3 chain: TAEHDEL
As to the kind of experiment: [3H]-peptide filter binding assay.

Test [10] deals with T4, TAEKDEL retrieval signal peptide (BiP) (Homo sapiens).
T4 chain: TAEKDEL
Kind of test: [3H]-peptide filter binding assay.

Test [11] concerns the target T3, TAEHDEL retrieval signal peptide. As to the kind of experiment: competition binding with [3H]-TAEHDEL.
Test [12] deals with T5, TAEHDEL-CONH retrieval signal peptide.
T5 chain: TAEHDEL-NH2
As to the kind of experiment: competition binding with [3H]-TAEHDEL.

Test [13] has as its target T3, TAEHDEL retrieval signal peptide. Kind of test: [3H]-peptide filter binding assay, pH 5.4.
The target of test [14] is T4, TAEKDEL retrieval signal peptide (BiP). Kind of test: [3H]-peptide filter binding assay, pH 5.4.

Sequence of [3H]-TAEHDEL retrieval-signal peptide K to H at position -4 relative to TAEKDEL (K651H in human BiP numbering) (P11021 whole entry K651H, looked up, tested part not stated): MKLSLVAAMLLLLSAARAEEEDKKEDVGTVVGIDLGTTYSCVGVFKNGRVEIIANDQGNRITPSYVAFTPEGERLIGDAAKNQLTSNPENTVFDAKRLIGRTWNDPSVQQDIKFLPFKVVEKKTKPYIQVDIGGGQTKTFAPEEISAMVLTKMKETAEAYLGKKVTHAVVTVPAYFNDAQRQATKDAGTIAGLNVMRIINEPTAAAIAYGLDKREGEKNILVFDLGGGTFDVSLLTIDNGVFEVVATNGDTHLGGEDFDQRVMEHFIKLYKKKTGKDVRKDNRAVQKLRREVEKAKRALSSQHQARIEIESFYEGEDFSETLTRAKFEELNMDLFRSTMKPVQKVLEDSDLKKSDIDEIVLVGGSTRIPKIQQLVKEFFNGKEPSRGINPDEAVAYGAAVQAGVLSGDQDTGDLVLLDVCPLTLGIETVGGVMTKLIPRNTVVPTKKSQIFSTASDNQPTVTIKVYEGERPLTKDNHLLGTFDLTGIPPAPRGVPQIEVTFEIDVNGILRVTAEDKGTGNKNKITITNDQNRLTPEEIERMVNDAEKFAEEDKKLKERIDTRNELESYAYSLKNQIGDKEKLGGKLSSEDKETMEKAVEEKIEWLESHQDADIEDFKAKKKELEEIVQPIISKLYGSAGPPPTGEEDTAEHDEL
Sequence of [3H]-TAEKDEL retrieval-signal peptide (P11021 whole entry, looked up, tested part not stated): as the sequence (P11021 whole entry K651H, looked up, tested part not stated) above, with H651K counted along it
Sequence of TAERDEL retrieval-signal peptide (unlabelled) K to R at position -4 relative to TAEKDEL (K651R in human BiP numbering) (P11021 whole entry K651R, looked up, tested part not stated): as the sequence (P11021 whole entry K651H, looked up, tested part not stated) above, with H651R counted along it
Sequence of TAEHDEL retrieval-signal peptide (unlabelled) K to H at position -4 relative to TAEKDEL (K651H in human BiP numbering) (P11021 whole entry K651H, looked up, tested part not stated): as the sequence (P11021 whole entry K651H, looked up, tested part not stated) above
Sequence of TAEKDEL retrieval-signal peptide (unlabelled) (P11021 whole entry, looked up, tested part not stated): as the sequence (P11021 whole entry K651H, looked up, tested part not stated) above, with H651K counted along it

Regarding “KDEL receptor 2 (KDELR2, ER lumen protein-retaining receptor 2), wild type”, the “KD (apparent, from IC50)” value in [1] is “KD 0.24 µM”; in test [2] it was “KD 1.94 µM”; in test [3], “KD 2.71 µM”. Moreover, the equilibrium dissociation constant (KD) came to 0.26 ± 0.04 µM in test [4] (pH 5.4) and 1.9 ± 0.46 µM in test [5]. The “fraction of maximal binding” value is reported as ~ 60% maximal binding in test [4] (pH 6.4) and less than 20% in [6].

B1: KDEL receptor 2 (protein)
chain: MNIFRLTGDLSHLAAIIILLLKIWKSRSCAGISGKSQLLFALVFTTRYLDLFTSFISLYNTSMKLIYIACSYATVYLIYMKFKATYDGNHDTFRVEFLIVPVGGLSFLVNHDFSPLEILWTFSIYLESVAILPQLFMISKTGEAETITTHYLFFLGLYRALYLVNWIWRYYFEGFFDLIAVVAGVVQTVLYCDFFYLYVTKVLKGKKLSLPA
Regarding B1, the Kd in test [7] is 2.71 µM; in [8] it was 14.9 µM; in test [9], 0.24 µM; in test [10], 1.94 µM; in [13] it was 0.26 µM; in test [14] it was 1.9 µM. The 50% inhibitory concentration (IC50) in test [11] is 19 µM; in test [12] it was 1700 µM.
